These results are taken from article doi:10.1101/2025.03.14.643221.

As a reminder, the stoichiometry N is the number of molecules, sites or subunits per partner or assembly. The Kd is the equilibrium constant for the complex coming apart. Read a low Kd as higher affinity.

In data set [1] the target is SalEnt LmuA(K68A), catalytically dead nuclease effector, tag cleaved (Salmonella enterica subsp. enterica serovar Tennessee (strain TXSC_TXSC08-19)). As to the kind of experiment: cryo-EM structure.
Data set [2] deals with LmuA(K68A), LmuA-KA;LmuB;LmuC. Kind of data set: fluorescence anisotropy. (In general: Polarisation of emitted light reports the rotation of a fluorescent probe.)
Data set [3] concerns the target SalEnt LmuB, SMC-like (Rad50-like) ABC ATPase (Salmonella enterica subsp. enterica serovar Tennessee (strain TXSC_TXSC08-19)). As to the kind of experiment: cryo-EM structure.

“SalEnt LmuA(K68A), catalytically dead nuclease effector, tag cleaved (enzyme)” yielded a stoichiometry N in data set [1] of 4. For the substance 40-mer dsDNA 6-FAM, the Kd in data set [2] turned out to be 180 nM. With “SalEnt LmuB, SMC-like (Rad50-like) ABC ATPase (natural protein)”, in data set [3], the stoichiometry N worked out at 2.
